# Results from patent US20220185853A1, “AMANTADINE BINDING PROTEIN” (UNIVERSITY OF WASHINGTON, priority 2019, published 2022).
# “Also recorded” adds a separate entry of the source.
# B1: ABP (amantadine-binding protein) (designed binder)
# chain: GSHMGDAQDKLKYLVKQLERALRELKKSLDELERSLEELEKNPSEDALVENNRLNVENNKIIVEVLRIILELAKASAKLA
# notes: The measurement row with m1 as both partners means self-association of ABP subunits
# B2: ABP: de novo designed homo-trimeric amantadine-binding protein, SEQ ID NO:1 (protein)
# chain: DAQDKLKYLVKQLERALRELKKSLDELERSLEELEKNPSEDALVENNRLNVENNKIIVEVLRIILELAKASAKLA
# modifications: homotrimer
# B3: 2L6HC3_13: previously characterized design; same backbone parameters as ABP but lacks the amantadine binding site (protein)
# chain: GTKYELRRALEELEKALRELKKSLDELERSLEELEKNPSEDALVENNRLNVENNKIIVEVLRIIAEVLKINAKSD
# Tests used:
# ABP = assay: Circular dichroism temperature melt of ABP in the presence of amantadine; format: binding
# Method: (§1) A synthetic gene encoding ABP was obtained and the protein expressed in E. coli.The design was expressed at high levels in the soluble fraction and was found by SEC-MALS to be a trimer in the presence and absence of amantadine (FIG. 2a). Interactions with amantadine were probed using thermofluor dye binding assay (differential scanning fluorimetry). […] As the protein was heated to 95° C., the fluorescence signal decreased, corresponding to protein aggregation at higher temperatures. […] In contrast, 2L6HC3_13, which has the same backbone parameters but lacks the amantadine binding site, is thermally stable by thermofluor assay, only starting to denature at ˜80° C. (FIG. 2b).
# (§2) CD wavelength scans (260 to 195 nm) and temperature melts (25 to 95° C.) were measured using a JASCO™ J-1500 or an AVIV™ model 420 CD spectrometer. Temperature melts monitored […] at 222 nm and were carried out at a heating rate of 4° C/min. Protein samples were prepared at 0.25 mg/mL in phosphate buffered saline (PBS) pH 7.4 in a 0.1 cm cuvette.
# ABP_L6Q = assay: Thermofluor assay, amantadine on ABP_L6Q; format: binding; conditions: 1 mM amantadine, 5 μM protein, SYPRO orange, 25° C.
# Method: (§3) As the protein was heated to 95° C., the fluorescence signal decreased, corresponding to protein aggregation at higher temperatures.
# (§4) Thermofluor assays were performed in SAXS buffer using a CFX96 Touch™ Real-Time PCR machine (Bio-Rad). Thermal stability assays were performed using 45 μL of 5 μM protein (with or without 1 mM amantadine) and 5 μL of freshly prepared 200X SYPRO™ orange (Thermo-Fisher) solution in SAXS buffer. The temperature was ramped from 25 ° C. to 95 ° C. in 0.5 ° C. increments with intervals of 5 s. Fluorescence was read in the FRET scanning mode. The average of three replicates of buffer+SYPRO orange solution (no protein control) was subtracted from the average of three replicates for each sample.
# 2L6HC3_13 = assay: Thermofluor assay, amantadine on 2L6HC3_13 (scaffold lacking the amantadine binding site); conditions: 1 mM amantadine
# Method: as §1, §4
# [1] = tested on: ABP (amantadine-binding protein); assay: Thermofluor dye binding assay (differential scanning fluorimetry), amantadine on ABP; conditions: 1 mM amantadine, 5 μM protein, SYPRO orange, 25° C.
# Method: as §1, §4
# [2] = target: the molecule itself; assay: SEC-MALS; self-association of ABP subunits into a homo-trimer
# [3] = Thermofluor melting curve of the proteins without ligand; format: physicochemical; conditions: for initial fluorescence signal of the apo protein (thermofluor melting curve): 25° C., without amantadine
# Method: as §1, §3, §4
# [4] = SEC-MALS oligomeric state; format: physicochemical; conditions: in the presence and absence of amantadine
# Method: as §1
# [5] = Circular dichroism temperature melt of ABP; format: physicochemical; conditions: CD at 25, 75, 95° C., without amantadine
# Method: as §1, §2
molecule,measurement,setting,value
NC12CC3CC(CC(C3)C1)C2 [amantadine],loss in CD signal of ABP on heating to 95° C. in the presence of amantadine,ABP; 1 mM amantadine,not significantly altered
same,thermal stability of ABP by CD spectrum in the presence of amantadine,"ABP; 5 mM amantadine, 25, 75, 95° C.",not significantly affected
same,"initial fluorescence signal of ABP_L6Q in the presence of amantadine, compared with apo-ABP_L6Q",ABP_L6Q,lowered; also recorded: much lower
same,effect of amantadine on the melting curve of 2L6HC3_13,2L6HC3_13,no effect
same,"initial fluorescence signal of ABP in the presence of amantadine, compared with apo-ABP",[1],lowered; also recorded: much lower
B1,binding result,[2],binds
B2,initial fluorescence signal of the apo protein (thermofluor melting curve),[3],high
same,oligomeric state by SEC-MALS,[4],trimer
same,thermal stability of the all α-helical structure by CD spectrum,[5],fairly stable up to 75 °C
B3,initial fluorescence signal of the apo protein (thermofluor melting curve),[3],very low
same,temperature at which the protein starts to denature (thermofluor),"[3]; thermofluor assay, 25 to 95° C.",~80 °C
